According to the supplement of paper PMC10724198:
± gives the standard deviation of the averaged measurements.

Legend:
Saccharomyces cerevisiae [1] = test: protein stability index of tFT-peptide fusion (C-terminal peptide) (PSI (0-1 scale)); higher = more stable (slower turnover); settings: genetic background: wild type; temperature: 30 C
Saccharomyces cerevisiae [2] = test: as above
Experimental: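 MPS profiling in S. cerevisiae of the tFT-X12 degron library: putative degron peptides plus stable controls, 12 aa, fused to the C-terminus of a sfGFP-mCherry timer. Cells are FACS-sorted into 8 mCherry/sfGFP bins and deep-sequenced. PSI runs from 0 (unstable) to 1 (stable). Backgrounds are wild type, das1Δ and doa10Δ at 30 °C, and wild type, das1Δ, cdc34-1 and cdc53-1 at 37 °C; 2-3 technical replicates each.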

[3] = genetic background: cdc34-1, temperature: 37 C
[4] = genetic background: cdc53-1, temperature: 37 C
[5] = genetic background: das1 deletion, temperature: 30 C
[6] = genetic background: das1 deletion, temperature: 37 C
[7] = genetic background: doa10 deletion, temperature: 30 C
[8] = genetic background: wild type, temperature: 30 C
[9] = genetic background: wild type, temperature: 37 C
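Also: PSI is a weighted mean of sequencing reads over stability bins, variants kept only with over 10 reads, mCherry proximal and sfGFP distal, peptide attached via GGGS linker.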

Sequence | protein stability index (Saccharomyces cerevisiae [1]) | protein stability index (Saccharomyces cerevisiae [2]; [3]) | protein stability index (Saccharomyces cerevisiae [2]; [4]) | protein stability index (Saccharomyces cerevisiae [2]; [5]) | protein stability index (Saccharomyces cerevisiae [2]; [6]) | protein stability index (Saccharomyces cerevisiae [2]; [7]) | protein stability index (Saccharomyces cerevisiae [2]; [8]) | protein stability index (Saccharomyces cerevisiae [2]; [9])
GALWVLGVVVGG | 0.467 ± 0.018 | 0.461 ± 0.0066 | 0.505 ± 0.0085 | 0.365 ± 0.026 | 0.537 ± 0.0094 | 0.329 ± 0.012 | 0.364 ± 0.027 | 0.511 ± 0.013
GAVRRWGWVSFV | 0.331 ± 0.044 | 0.633 ± 0.052 | 0.7476 ± 0.0049 | 0.6425 ± 0.0039 | 0.744 ± 0.013 | 0.173 ± 0.0068 | 0.193 ± 0.0085 | 0.393 ± 0.004
GAVVYGICFCTN | 0.442 ± 0.061 | 0.624 ± 0.011 | 0.617 ± 0.0081 | 0.388 ± 0.031 | 0.637 ± 0.027 | 0.35 ± 0.0049 | 0.363 ± 0.035 | 0.621 ± 0.0069
GCLVVVGFFSVF | 0.326 ± 0.033 | 0.214 ± 0.049 | 0.416 ± 0.041 | 0.255 ± 0.028 | 0.458 ± 0.028 | 0.2 ± 0.011 | 0.241 ± 0.0093 | 0.409 ± 0.018
GCVLVFFLRLDL | 0.49 ± 0.072 | 0.4328 ± 0.0006 | 0.538 ± 0.067 | 0.354 ± 0.034 | 0.557 ± 0.034 | 0.3466 ± 0.0014 | 0.365 ± 0.0072 | 0.562 ± 0.01
GFALGSFMLVLR | 0.0977 ± 0.0089 | 0.0226 ± 0.0077 | 0.0469 ± 0.019 | 0.0861 ± 0.012 | 0.0844 ± 0.0018 | 0.596 ± 0.037 | 0.0702 ± 0.012 | 0.0617 ± 0.0078
GFCFVFVFQCFF | 0.394 ± 0.049 | 0.339 ± 0.0077 | 0.451 ± 0.034 | 0.288 ± 0.031 | 0.431 ± 0.0031 | 0.267 ± 0.0043 | 0.276 ± 0.039 | 0.402 ± 0.014
GFFFLFFVSAFI | 0.407 ± 0.026 | 0.368 ± 0.021 | 0.4553 ± 0.0027 | 0.327 ± 0.034 | 0.485 ± 0.011 | 0.2992 ± 0.0012 | 0.311 ± 0.064 | 0.445 ± 0.0067
GFFFYFVLFGLS | 0.409 ± 0.0059 | 0.34 ± 0.061 | 0.409 ± 0.0011 | 0.29 ± 0.015 | 0.47314 ± 0.00013 | 0.285 ± 0.011 | 0.268 ± 0.018 | 0.446 ± 0.016
GFISKLIIKLAA | 0.435 ± 0.0059 | 0.542 ± 0.0055 | 0.566 ± 0.032 | 0.43 ± 0.025 | 0.5511 ± 0.0043 | 0.269 ± 0.0091 | 0.319 ± 0.016 | 0.462 ± 0.026
GFVLMLLVRFEL | 0.419 ± 0.034 | 0.299 ± 0.037 | 0.416 ± 0.0054 | 0.309 ± 0.031 | 0.474 ± 0.015 | 0.328 ± 0.011 | 0.294 ± 0.046 | 0.465 ± 0.035
GGFRVLLWCVVW | 0.28 ± 0.016 | 0.19 ± 0.046 | 0.3237 ± 0.0018 | 0.214 ± 0.041 | 0.399 ± 0.0044 | 0.184 ± 0.0074 | 0.208 ± 0.03 | 0.35 ± 0.028
GGGEGVVWVRLG | 0.272 ± 0.018 | 0.537 ± 0.054 | 0.72 ± 0.011 | 0.637 ± 0.0046 | 0.737 ± 0.009 | 0.116 ± 0.012 | 0.131 ± 0.0021 | 0.19 ± 0.01
GGGWCEMLIVVG | 0.441 ± 0.018 | 0.506 ± 0.018 | 0.512 ± 0.026 | 0.358 ± 0.029 | 0.5495 ± 0.0039 | 0.324 ± 0.013 | 0.367 ± 0.03 | 0.542 ± 0.017
GGRFVWIVRAVG | 0.471 ± 0.014 | 0.6323 ± 0.0024 | 0.727 ± 0.017 | 0.611 ± 0.021 | 0.73 ± 0.022 | 0.233 ± 0.004 | 0.272 ± 0.037 | 0.568 ± 0.057
GGRHYGILDLSL | 0.7174 ± 0.0062 | 0.638 ± 0.063 | 0.708 ± 0.013 | 0.677 ± 0.019 | 0.719 ± 0.024 | 0.6927 ± 0.0056 | 0.677 ± 0.025 | 0.6992 ± 0.00076
GGVSPRSSMDLL | 0.434 ± 0.21 | 0.6849 ± 0.0066 | 0.764 ± 0.01 | 0.646 ± 0.023 | 0.736 ± 0.029 | 0.648 ± 0.0075 | 0.645 ± 0.012 | 0.7319 ± 0.0035
GGVWVLGVAVVW | 0.348 ± 0.062 | 0.114 ± 0.014 | 0.132 ± 0.029 | 0.246 ± 0.019 | 0.349 ± 0.017 | 0.207 ± 0.0064 | 0.236 ± 0.023 | 0.275 ± 0.0036
GGWSFSSLWKIA | 0.301 ± 0.09 | 0.625 ± 0.066 | 0.817 ± 0.015 | 0.765 ± 0.038 | 0.8379 ± 0.0033 | 0.126 ± 0.013 | 0.127 ± 0.019 | 0.205 ± 0.012
GIGVVWLDVFKT | 0.426 ± 0.017 | 0.4 ± 0.0057 | 0.499 ± 0.024 | 0.321 ± 0.035 | 0.537 ± 0.011 | 0.301 ± 0.024 | 0.304 ± 0.017 | 0.504 ± 0.035
